Test results as given in paper PMC10148081.

Target: Leishmania tarentolae propionyl-CoA carboxylase (LtPCC) β-subunit (Leishmania tarentolae (endogenous in L. tarentolae cells))
Assay: cryo-EM structure; endogenous LtPCC complexes from streptavidin pull-down, in 20 mM Tris-HCl pH 7.5, 60 mM KCl, 5 mM MgCl2, 1 mM DTT, 5 mM OG; α6β6 map with D3 symmetry at 3.2 Å, α5β6 (8.6 Å) and α4β6 (10.3 Å) maps with C1 symmetry

- stoichiometry N: 6
Substance: Leishmania tarentolae propionyl-CoA carboxylase (LtPCC) β-subunit (natural protein)
